Laboratory results reported in the RNAGym collection of RNA variant scans (doi:10.1073/pnas.2313332121).

B1: TPR t1 (parent)
chain: GACCAAUCUGCCCUCAGAGCUCGAGAACAUCUUCGGAUGCAGAGGAGGCAGGCUUCGGUGGCGCGAUAGCGCCAACGUCCUCAACCUCCAAUGCAUCCCACCACAUGAUGAUGCCUGAAGAGCCUUGGUUUUUUG

Variants of: B1
Experiment: polymerase ribozyme fitness, log enrichment relative to wild type (log ratio); higher = more active; in vitro selection for triplet polymerase activity
Outline: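 The heterodimeric triplet polymerase ribozyme's subunits were each mutagenized into PCR-built libraries and transcribed. Every library was selected once, in triplicate, by annealing with a biotinylated primer, the partner subunit and triplets, incubating frozen at −7 °C, gel-excising extended constructs, capturing on streptavidin beads and running RT-PCR. Input and output libraries were Illumina-sequenced, with genotypes kept only at ≥10 input reads and ≥1 read per output. Fitness, from inverse-variance-weighted replicate averages, is the base-2 logarithm of genotype enrichment over wild-type enrichment.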

Variant | polymerase ribozyme fitness (log ratio)
GACCAAUCUGCCCUCAGAGCUCGAGAACAUCUUCGGAUGCAGAGGAGGCAGGCUUCGGUGGCGCGAUAGCGCCAACGUCCUCAACCUCCAAUGCAUCCCACCACAUGAUGAUGCCUGAAGAGCAUUGUUUUUUUG [C124A G128U] | 0.625
GACCAAUCUGCCCUCAGAGCUCGAGAACAUCUUCGGAUGCAGAGGAGGCAGGCUUCGGUGGCGCGAUAGCGCCAACGUCCUCAACCUCCAAUGCAUCCCACCACAUGAUGAUGCCUGAAGAGCCUUUAUUUUUUG [G127U G128A] | -2.19
GACCAAUCUGCCCUCAGAGCUCGAGAACAUCUUCGGAUGCAGAGGAGGCAGGCUUCGGUGGCGCGAUAGCGCCAACGUCCUCAACCUCCAAUGCAUCCCACCACAUGAUGAUGCCUGAAGAGUAUUGGUUUUUUG [C123U C124A] | 2.14
GACCAAUCUGCCCUCAGAGCUCGAGAACAUCUUCGGAUGCAGAGGAGGCAGGCUUCGGUGGCGCGAUAGCGCCAACGUCCUCAACCUCCAAUGCAUCCCACCACAUGAUGAUGCCUGAAGAUCGUUGGUAUUUUG [G122U C124G U130A] | 0.942
GACCAAUCUGCCCUCAGAGCUCGAGAACAUCUUCGGAUGCAGAGGAGGCAGGCUUCGGUGGCGCGAUAGCGCCAACGUCCUCAACCUCCAAUGCAUCCCACCACAUGAUGAUGCCUGAAGAGCCUUAGUCUUUUG [G127A U130C] | -0.727
GACCAAUCUGCCCUCAGAGCUCGAGAACAUCUUCGGAUGCAGAGGAGGCAGGCUUCGGUGGCGCGAUAGCGCCAACGUCCUCAACCUCCAAUGCAUCCCACCACAUGAUGAUGCCUGAAGAGCUUAGGUUUUUUG [C124U U126A] | 1.37
GACCAAUCUGCCCUCAGAGCUCGAGAACAUCUUCGGAUGCAGAGGAGGCAGGCUUCGGUGGCGCGAUAGCGCCAACGUCCUCAACCUCCAAUGCAUCCCACCACAUGAUGAUGCCUGAAGAGCCUUAGAUUUUUG [G127A U129A] | -1.26
GACCAAUCUGCCCUCAGAGCUCGAGAACAUCUUCGGAUGCAGAGGAGGCAGGCUUCGGUGGCGCGAUAGCGCCAACGUCCUCAACCUCCAAUGCAUCCCACCACAUGAUGAUGCCUGAAGAGGCUUGGUUUUAUG [C123G U133A] | 2.19
GACCAAUCUGCCCUCAGAGCUCGAGAACAUCUUCGGAUGCAGAGGAGGCAGGCUUCGGUGGCGCGAUAGCGCCAACGUCCUCAACCUCCAAUGCAUCCCACCACAUGAUGAUGCCUGAAGAUCCUUGGUGUUUUG [G122U U130G] | -0.749
GACCAAUCUGCCCUCAGAGCUCGAGAACAUCUUCGGAUGCAGAGGAGGCAGGCUUCGGUGGCGCGAUAGCGCCAACGUCCUCAACCUCCAAUGCAUCCCACCACAUGAUGAUGCCUGAAGAGCCUUCUUUUUAUG [G127C G128U U133A] | -1.83
GACCAAUCUGCCCUCAGAGCUCGAGAACAUCUUCGGAUGCAGAGGAGGCAGGCUUCGGUGGCGCGAUAGCGCCAACGUCCUCAACCUCCAAUGCAUCCCACCACAUGAUGAUGCCUGAAGAGACUUGUUUUUUUG [C123A G128U] | -0.255
GACCAAUCUGCCCUCAGAGCUCGAGAACAUCUUCGGAUGCAGAGGAGGCAGGCUUCGGUGGCGCGAUAGCGCCAACGUCCUCAACCUCCAAUGCAUCCCACCACAUGAUGAUGCCUGAAGAGGCUUGGUUAUUUG [C123G U131A] | 0.367
GACCAAUCUGCCCUCAGAGCUCGAGAACAUCUUCGGAUGCAGAGGAGGCAGGCUUCGGUGGCGCGAUAGCGCCAACGUCCUCAACCUCCAAUGCAUCCCACCACAUGAUGAUGCCUGAAGAGGCUUGGAUUUUUG [C123G U129A] | -1.13
GACCAAUCUGCCCUCAGAGCUCGAGAACAUCUUCGGAUGCAGAGGAGGCAGGCUUCGGUGGCGCGAUAGCGCCAACGUCCUCAACCUCCAAUGCAUCCCACCACAUGAUGAUGCCUGAAGAGAUUUGGUUUUUUG [C123A C124U] | 2.15
GACCAAUCUGCCCUCAGAGCUCGAGAACAUCUUCGGAUGCAGAGGAGGCAGGCUUCGGUGGCGCGAUAGCGCCAACGUCCUCAACCUCCAAUGCAUCCCACCACAUGAUGAUGCCUGAAGAGACUUGGUUUUUUA [C123A G135A] | 0.422
GACCAAUCUGCCCUCAGAGCUCGAGAACAUCUUCGGAUGCAGAGGAGGCAGGCUUCGGUGGCGCGAUAGCGCCAACGUCCUCAACCUCCAAUGCAUCCCACCACAUGAUGAUGCCUGAAGAACCUUGGUAUUUUG [G122A U130A] | -0.49
GACCAAUCUGCCCUCAGAGCUCGAGAACAUCUUCGGAUGCAGAGGAGGCAGGCUUCGGUGGCGCGAUAGCGCCAACGUCCUCAACCUCCAAUGCAUCCCACCACAUGAUGAUGCCUGAAGAGGCCUGGUUUUUUG [C123G U125C] | 1.61
GACCAAUCUGCCCUCAGAGCUCGAGAACAUCUUCGGAUGCAGAGGAGGCAGGCUUCGGUGGCGCGAUAGCGCCAACGUCCUCAACCUCCAAUGCAUCCCACCACAUGAUGAUGCCUGAAGAGCAAUGGUUUUUUG [C124A U125A] | 1.57
GACCAAUCUGCCCUCAGAGCUCGAGAACAUCUUCGGAUGCAGAGGAGGCAGGCUUCGGUGGCGCGAUAGCGCCAACGUCCUCAACCUCCAAUGCAUCCCACCACAUGAUGAUGCCUGAAGACCCUUGGUUUUUUG [G122C] | -2.37
GACCAAUCUGCCCUCAGAGCUCGAGAACAUCUUCGGAUGCAGAGGAGGCAGGCUUCGGUGGCGCGAUAGCGCCAACGUCCUCAACCUCCAAUGCAUCCCACCACAUGAUGAUGCCUGAAGAACCUUGGUUUUUUG [G122A] | -0.49
GACCAAUCUGCCCUCAGAGCUCGAGAACAUCUUCGGAUGCAGAGGAGGCAGGCUUCGGUGGCGCGAUAGCGCCAACGUCCUCAACCUCCAAUGCAUCCCACCACAUGAUGAUGCCUGAAGAUCCUUGGUUUUUUG [G122U] | 0.322
